The values that follow come from patent US20160228506A1, “Compositions and Formulations for Prevention and Reduction of Tumorigenesis, Cancer Cell Proliferation and Invasion, and Methods of Production and Use Thereof in Cancer Treatment” (PRONUTRIA, INC., priority 2013, published 2016).

The test system of one data set is Pancreatin. Type of data set: in vitro ADME, Porcine. The method, then:
Control samples were protease-free.
Analyses were performed using an Agilent 1100 series system.

The conditions of data set [1]: rat, in vivo, po. As for the experimental part:
The boavailability o native and modified forms (ie. deglycosylated and hydrolyzed) of SEQID-00363 was evaluated using the methods described in herein. Briefly, native and modified forms of SEQID-00363 were orally administered to intrajugular-cannulated rats and concentration of free amino acids in plasma samples collected over a 4 h period was determined by HPLC amino acid analysis.

For data set [2] the following is noted: rat, in vivo.
Protocol: A rat pharmacokinetic study with oral administration of native and modified forms of SEQID-00363 was performed as described herein. The indigestible marker Cobalt-EDTA was formulated at 50 mg/L in the dosed protein solutions to monitor differences in intestinal transit rate between treatment groups and individual rats. Following the final blood collection (at t=4 h) rats were euthanized and the terminal ileum (20 cm of small intestine prior to the cecum) and its contents (the digesta) were collected into a pre-weighed tube. The ileum was flushed with saline and pooled with the digesta. The pH of the digesta was adjusted to ˜3.0 with HCl in order to inactivate all enzymes. The ileum samples were placed into separate pre-weighed 15 mL conical tubes. All samples were flash frozen in liquid nitrogen, and stored at −80° C. until further analysis. Individual ileum and ileum content weights were calculated and recorded for each sample.
A sample of the digesta, which exists as a heterogenous solution containing insoluble particles, was used in the Coomassie Plus Protein Assay, as described herein, to determine protein concentration.
For data set [3] the following is noted: simulated gi fluid.
Data set [4] in a line: SGF digest of 168 nutritive polypeptide library, intact protein by LC-MS/MS. Type of data set: in vitro ADME. As to conditions: for % Intact Protein at 10 min: 168 nutritive polypeptide library SGF digest, LC-MS/MS spectral counts; for % Remaining at 10 min: 168 nutritive polypeptide library, LC-MS/MS. In short, it runs like this:
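Spectral-count ratios (10 min vs 0 min, peak gel fraction plus neighbours) give the percent of each protein left intact after SGF digestion of a pooled, IMAC-purified 168-member recombinant library. Samples were gel-fractionated, trypsinised in-gel and run on Orbitrap nanoLC-MS/MS, requiring two unique peptides at 1% FDR.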

The nature of a further data set: pH solubility. Format: physicochemical. Particulars: for pH Range where Protein is >80% detected as Soluble and A650 <1 OD: Low: lower pH; for pH Range where Protein is >80% detected as Soluble and A650 <1 OD: High: upper pH. As for the experimental part:
pH Solubility. […] Protein was either lyophilized and then resuspended in buffer cocktail mixtures, or concentrated and then spiked into buffer cocktail mixtures at a final protein concentration of 5 to 30 mg/ml. As a control, protein was also dissolved in a solution of 8 M urea. Protein solutions were shaken for 10 min at room temperature. Turbidity of proteins was determined by measuring the absorbance of protein solutions at 650 nm. The protein solution was then centrifuged for 10 min at 1100×g to pellet undissolved or precipitated protein. The soluble protein fraction (supernatant) was sampled and protein concentration was measured by one or more of the following methods: Coomassie Plus Protein Assay (Pierce), Chip electrophoresis, gel electrophoresis, and/or absorbance at 280 nm. The pH range over which select proteins remained greater than 80% soluble as determined by Bradford and the A650 value are listed in Table E31C.

Data set [5] in a line: Thermostability, temperature of aggregation (ProteoStat Thermal Shift). Format: physicochemical. Further details: key to Tagg: temperature in °C. As for the experimental part:
The thermostability of proteins in a buffer cocktail of Citric Acid and Dibasic Sodium Phosphate over a pH range of 2.8 to 7.1 (preparation described above in Table E31B) was determined using the ProteoStat® Thermal Shift Stability Kit (Enzo Life Sciences) according to the manufacturer's standard protocol. Briefly, protein solutions (˜10 mg/ml) containing 1× ProteoStat TS Detection Reagent were heated from 25° C. to 95° C. at a rate of 0.5° C. per 30 sec using a real-time PCR (rtPCR) thermocycler (BioRad) equipped with a plate reader (SynergyMx, Biotek) while monitoring the fluorescence with a Texas Red filter.

Data set [6] can be described thus: Intact half-life during simulated gastric fluid (SGF) digestion. As to conditions: for SGF Half-life (t½): SGF pH 1.5, pepsin:polypeptide 1:20 w/w, 37° C., intact protein; for Half-life: purified proteins, chip electrophoresis.
A further data set has as its system α-amylase. The experiment in a line: Amylase activity assay on starch plates (halo). Further details: species or system Bacillus subtilis. The method, then:
SEQID-00407 is an α-amylase in Bacillus subtilis that has the activity of breaking down polysaccharides, such as starch, into monosaccharides or disaccharides. […] If there is enzymatic activity, the secreted enzyme will breakdown the starch and upon staining by iodine, there will be a halo surrounding the Bacillus subtilis colonies. 1% starch plates were made by combining 25 g Luria Broth-Miller, 10 g starch, 15 g bacteriological agar, and 1 L water. 10 mM IPTG was added to the starch plates after the agar has solidified. Single colonies of Bacillus subtilis strains expressing the mutant polypeptides were inoculated in 5 ml LB at 37° C. for 4 hours and 50 μl of the liquid culture were spotted at the center for the starch plates. After 20 hours of growth and induced secretion, 10% iodine was added to the starch plates to stain for starch. When the wild-type enzyme is secreted, it creates a large halo around the cells. […] Table E37A quantifies the area of the halos relative to the area of the cells. […]
SEQID-00407 is an α-amylase in Bacillus subtilis that has the activity of breaking down polysaccharides, such as starch, into monosaccharides or disaccharides. […] Table E38E quantifies the area of the halos relative to the area of the cells.

Read-outs that look alike come from different tables or passages of the source.

B1: Deglycosylated SEQID-00363: SEQID-00363 with mannose glycans reduced enzymatically by alpha mannosidase (protein)
chain: ATLDSWLSNEATVARTAILNNIGADGAWVSGADSGIVVASPSTDNPDYFYTWTRDSGLVLKTLVDLFRNGDTSLLSTIENYISAQAIVQGISNPSGDLSSGAGLGEPKFNVDETAYTGSWGRPQRDGPALRATAMIGFGQWLLDNGYTSTATDIVWPLVRNDLSYVAQYWNQTGYDLWEEVNGSSFFTIAVQHRALVEGSAFATAVGSSCSWCDSQAPEILCYLQSFWTGSFILANFDSSRSGKDANTLLGSIHTFDPEAACDDSTFQPCSPRALANHKEVVDSFRSIYTLNDGLSDSEAVAVGRYPEDTYYNGNPWFLCTLAAAEQLYDALYQWDKQGSLEVTDVSLDFFKALYSDAATGTYSSSSSTYSSIVDAVKTFADGFVSIVETHAASNGSMSEQYDKSDGEQLSARDLTWSYAALLTANNRRNSVVPASWGETSASSVPGTCAATSAIGTYSSVTVTSWPSIVATGGTTTTATPTGSGSVTSTSKTTATASKTSTSTSSTSCTTPTAVAVTFDLTATTTYGENIYLVGSISQLGDWETSDGIALSADKYTSSDPLWYVTVTLPAGESFEYKFIRIESDDSVEWESDPNREYTVPQACGTSTATVTDTWR
modifications: deglycosylated; Aspergillus niger
B1: the “Free Leu (μM) at 120 min time point of Pancreatin digest” value (shortened to “Free Leu (μM) at 120 min time point”) with Pancreatin came out at 799.2 µM. For the same molecule, in [1], the “bioavailability of Leucine and EAAs versus native SEQID-00363” value is “did not increase the bioavailability”; the “bioavailability of Serine and Threonine versus native SEQID-00363” value is “did increase the bioavailability”. Besides, the “total protein mass in digesta samples” value in [2] was found to be 7.7 mg. Besides, the “SGF Half-life (t½)” value in [3] is 258 s.

B2: SEQID-00485: nutritive polypeptide naturally produced in Chickpea, recombinantly expressed in E. coli (protein, listed as Cicer arietinum)
chain: MTKTGYINAAFRSSRNNEAYLFINDKYVLLDYAPGTSNDKVLYGPSFVRDGYKSLAKTIFGTYGIDCSFDTEYNEAFIFYENFCARIDYAPHSDKDKIISGPKKIADMFPFFKGTVFENGIDAAFRSTKGKEVYLFKGDKYARIDYLTNRLVQNIKSISDGFPCLRGTIFEAGMDSAFASHKTNEAYLFKGEYYARINFTPGSTNDIMGGVKKTLDYWPSLRGIIPLE
Consider B2, for which the “Free Leu (μM) at 120 min time point” value in the data set with Pancreatin stood at 764.9 µM. In addition, the “% Intact Protein at 10 min” value in data set [4] is listed as 0%. Besides, the “% Remaining at 10 min” value in data set [4] amounted to 0%. In addition, in “pH solubility”, the “pH Range where Protein is >80% detected as Soluble and A650 <1 OD: Low” value was 4.6. The “pH Range where Protein is >80% detected as Soluble and A650 <1 OD: Other” value in the data set “pH solubility” (other pH) was found to be 2.8. Further, in “pH solubility”, the “pH Range where Protein is >80% detected as Soluble and A650 <1 OD: High” value is 7.1. The Tagg in data set [5] (pH 5.0) amounted to 31.5; in data set [5] (pH 5.6), 34.5; in data set [5] (pH 6.0), 36; in data set [5] (pH 6.5), 36.5; in data set [5] (pH 7.1), 36. Besides, the “SGF Half-life (t½)” value in data set [6] is 30 s. Moreover, the “Half-life” value in [6] is 30 s.

B3: SEQID-00605: nutritive polypeptide naturally produced in Mushroom, recombinantly expressed in E. coli (protein, listed as Agaricus bisporus)
chain: MLEFTLNDGNRIPAIAFGTGTALYNQDASAFVRLAIETGITHLDGAQMYENEETLGKGIKSSGKPRSELFITTKLHILKPGQTVRETLVESLGKIGVDYVDLFLIHDPTANRKEATLSEIWSQLEALKNEGLTKSIGVSNFKVEDLNEILPGAKIIPAVNQIEFHPYVLKAASPIIELCKAKGIIVASYGGQTPIVRATDGPLKDLLPKIRERLEQTRGSPVTEGQVLTKWLLQKNVIAISTSSKESRIKEFLSTVDVPDLTKQEIESIDNAGSTIHKRIYMKHIFNE
modifications: source: /note="var. bisporus"; source: /note="strain H97 / ATCC MYA-4626 / FGSC 10389"
notes: nutritive polypeptide naturally produced in Mushroom, recombinantly expressed in E. coli
As for B3, the “Free Leu (μM) at 120 min time point” value with Pancreatin turned out to be 937.1 µM. In [4], the “% Intact Protein at 10 min” value was found to be 0%. In addition, in data set [4], the “% Remaining at 10 min” value was 0%. In addition, the “pH Range where Protein is >80% detected as Soluble and A650 <1 OD: Low” value in “pH solubility” is listed as 5.6. In the data set “pH solubility”, the “pH Range where Protein is >80% detected as Soluble and A650 <1 OD: High” value came to 7.1. The Tagg in data set [5] (pH 4.6) worked out at 40.5; in data set [5] (pH 5.0), 33.5; in data set [5] (pH 5.6) it was 37; in data set [5] (pH 6.0), 44.5; in data set [5] (pH 6.5), 38.5; in data set [5] (pH 7.1), 39. Also, the “SGF Half-life (t½)” value in [6] was 12 s. Also, the “Half-life” value in data set [6] was 12 s.

B4: SEQID-00690: engineered secreted variant of SEQID-00407 enriched in essential amino acids which retains enzymatic activity (protein, listed as Bacillus subtilis)
chain: ETANKSNELTAPSIKSGTILHAWNWSFNTLKHNMKDIHDAGYTAIQTSPINQVKEGNQGDKSMSNWYWLYQPTSYQIGNRYLGTEQEFKEMCAAAEEYGIKVIVDAVINHTTSDLVGVLSNEVKSIPNWTHGNTQIKNWSDRWDVTQNSLLGLYDWNTQNTQVQSYLKRFLDRALNDGADGFRFDAAKHIELPDDGSYGSQFWPNITRVVMEFQYGEILQDSASRDAAYANYMDVTASNYGHSIRSALKNRNLGVSNIVMYILRVSADKLVTWVESHDTYANDDEESTWMSDDDIRLGWAVIASRSGSTPLFFSRPEGGGNGVRFPGKSQIGDRGSALFEDQAITAVNRFHNVMAGLPKRLSNPNGNNQIFMNQRGSHGVVLANAGSSSVSINTATKLPDGRYDNKAGAGSFQVNDGKLTGTINARSVAVLYPDDIAKAPHVFLENYKTGVTHSFNDQLTITMRADANTTKAVYQINNGPETAFKDGDQFTIGKGDPFGKTYTIMLKGTNSDGVTRTEKYSFVKRDPASAKTIGYQNPNHWSQVNAYIYKHDGSRVIELTGSWPGKPMTKNADGIYTLTLPADTDTTNAKVIFNNGSAQVPGQNQPGFDYVLNGLYNDSGLSGSLPH
modifications: source: /note="strain 168"
In the case of B4, the Halo/Cell in the data set with α-amylase (area of halo relative to area of cells) is recorded as 2.63. Further, the “Halo Area (in^2)” value with α-amylase (starch plate, iodine stain, 20 hours) amounted to 1.234 in^2. Besides, the “SGF Half-life (t½)” value in data set [6] is 264 s.
